According to patent US20250066503A1, “CELL INJURY INDUCING THERAPEUTIC DRUG FOR USE IN CANCER THERAPY” (CHUGAI SEIYAKU KABUSHIKI KAISHA, priority 2016, published 2025):
Residue numbers refer to the chain shown, from its start.

Legend:
[1] = target: T1, human GPC3 (human, UniProt P51654 25-563); assay: SPR, antibody captured by Protein A/G
T1 construct: range 25-563; soluble analyte; also called soluble human GPC3; glypican 3
Description: The activity to bind human GPC3 when using GL4 (SEQ ID NO: 41) and L0000 (SEQ ID NO: 53) as the L-chain variable regions was evaluated. This was performed using the molecular form of a single-arm antibody having a single Fab at the Fc region of a human IgG1 heterodimerized by the knobs-into-hole technique. H0000 (SEQ ID NO: 40) was used for the anti-GPC3 antibody H-chain variable region.
The affinity and binding rate constants of an anti-GPC3 antibody for an antigen were measured by the multi-cycle kinetics method of a surface plasmon resonance assay using Biacore™-T200 (GE Healthcare Japan). HBS-EP+(GE Healthcare Japan) was used for the running buffer, and an amine coupling kit (GE Healthcare Japan) was used to covalently bind Protein A/G to the CM5 chip (carboxymethyl dextran-coated chip). […] Measurements were carried out by first allowing Protein A/G to capture the antibody solution, and then injecting the human GPC3 solution at a flow rate of […] for three minutes to allow reaction to take place. Then, the solution was switched to HBS-EP+ and the dissociation phase was measured for 15 minutes. After completion of the dissociation phase measurement, the sensor chip was regenerated by washing with 10 mM Gly-HCl at pH 1.5. Measurement at the concentration of 0 was similarly carried out by allowing Protein A/G to capture the antibody solution, performing a three-minute HBS-EP+ injection to allow reaction to take place, and then switching to HBS-EP+ to measure the dissociation phase for 15 minutes. After completion of the dissociation phase measurement, the sensor chip was regenerated by washing with 10 mM Gly-HCl at pH 1.5. A data analysis software exclusively for Biacore, Biacore T200 Evaluation Software Version 1.0, was used to perform kinetic analyses to calculate the binding rate constant (ka), dissociation rate constant (kd), and the rate constant ratio from the obtained sensorgrams.

[2] = target: T2, soluble human CD3 epsilon chain (human, UniProt P07766 23-126); assay: SPR, human CD3 on the chip
T2 construct: also called CD3ε
Description: The activity to bind human CD3 when using hCE115HA (SEQ ID NO: 52) as the H chain variable region and L0000 (SEQ ID NO: 53) as the L-chain variable region was evaluated. This was performed using the molecular form of a single-arm antibody having a single Fab at the Fc region of a human IgG1 heterodimerized by the knobs-into-hole technique.
The affinity and binding rate constants of an anti-CD3 antibody for an antigen were measured by the single-cycle kinetics method of a surface plasmon resonance assay using Biacore™-T200 (GE Healthcare Japan). HBS-EP+(GE Healthcare Japan) was used for the running buffer, and an amine coupling kit (GE Healthcare Japan) was used to covalently bind human CD3 to the CM4 chip (carboxymethyl dextran-coated chip). The anti-CD3 antibody used as the analyte was prepared at 5 and […] using HBS-EP+. Measurements were carried out by first injecting each of the 5- and 20-g/mL anti-CD3 antibody solutions for three minutes continuously at a flow rate of 20 L/min to allow reaction to take place. Then, the solution was switched to HBS-EP+ and the dissociation phase was measured for 3 minutes. After completion of the dissociation phase measurement, the sensor chip was regenerated by washing with 10 mM Gly-HCl at pH 1.5. Measurement at the concentration of 0 was carried out by performing each of the three-minute HBS-EP+ injections twice successively to allow reaction to take place, and then switching to HBS-EP+ to measure the dissociation phase for 3 minutes. After completion of the dissociation phase measurement, the sensor chip was regenerated by washing with 10 mM Gly-HCl at pH 1.5. A data analysis software exclusively for Biacore, Biacore T200 Evaluation Software Version 1.0, was used to perform kinetic analyses to calculate the binding rate constant (ka), dissociation rate constant (kd), and the rate constant ratio from the obtained sensorgrams.

[3] = target: T1, human GPC3; assay: SPR
[4] = target: T1, human GPC3; assay: SPR, single-arm antibody
[5] = target: T2, soluble human CD3 epsilon chain; assay: SPR

T1 sequence (P51654 25-563 limits assumed): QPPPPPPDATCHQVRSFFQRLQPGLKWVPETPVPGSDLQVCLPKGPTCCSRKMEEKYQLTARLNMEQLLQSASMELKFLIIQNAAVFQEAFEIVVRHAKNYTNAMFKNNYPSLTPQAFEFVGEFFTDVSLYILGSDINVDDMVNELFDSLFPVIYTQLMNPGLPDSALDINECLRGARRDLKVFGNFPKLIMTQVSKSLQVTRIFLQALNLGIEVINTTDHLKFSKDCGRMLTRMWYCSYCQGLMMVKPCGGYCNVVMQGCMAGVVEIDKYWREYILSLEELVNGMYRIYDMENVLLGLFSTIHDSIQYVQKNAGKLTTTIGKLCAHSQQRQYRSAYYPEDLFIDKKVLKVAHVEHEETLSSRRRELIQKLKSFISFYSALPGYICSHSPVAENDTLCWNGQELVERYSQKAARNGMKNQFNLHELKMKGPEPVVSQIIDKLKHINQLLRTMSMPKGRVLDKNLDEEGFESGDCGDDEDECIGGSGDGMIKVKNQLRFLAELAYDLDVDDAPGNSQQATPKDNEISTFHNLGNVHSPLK
T2 sequence (P07766 23-126 limits assumed): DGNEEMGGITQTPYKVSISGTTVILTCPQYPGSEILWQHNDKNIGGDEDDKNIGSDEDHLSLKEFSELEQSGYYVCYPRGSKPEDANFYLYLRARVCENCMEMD

B1: H0000/GL4 single-arm antibody (antibody, human IgG1, V domains shown)
VH: QVQLVQSGAEVKKPGASVKVSCKASGYTFTDYEMHWIRQPPGQGLEWIGAIDPKTGDTAYSQKFKGRVTLTADKSTSTAYMELSSLTSEDTAVYYCTRFYSYTYWGQGTLVTVSS
VL: DIVMTQSPLSLPVTPGEPASISCRSSQSLVHSNRNTYLHWYQQKPGQAPRLLIYKVSNRFSGVPDRFSGSGSGTDFTLKISRVEAEDVGVYYCSQNTHVPPTFGQGTKLEIK
notes: single Fab on human IgG1 Fc heterodimerized by knobs-into-hole
Kd [1]: 4.2 nM | koff [1]: 0.0018 s⁻¹ | kon [1]: 430000 M⁻¹ s⁻¹

B2: hCE115HA/L0000 single-arm antibody (antibody, human IgG1, V domains shown)
VH: QVQLVESGGGVVQPGRSLRLSCAASGFTFSNAWMHWVRQAPGKGLEWVAQIKAKSNNYATYYAESVKGRFTISRDDSKNSLYLQMNSLKTEDTAVYYCRYVHYGAYYGVDAWGQGTTVTVSS
VL: B1 VL with S94G, N96G, H98Q, P101Y
notes: as for B1
Kd [2]: 120 nM | koff [2]: 0.023 s⁻¹ | kon [2]: 190000 M⁻¹ s⁻¹

B3: H0000/L0000 single-arm antibody (antibody, human IgG1, V domains shown)
VH: B1 VH
VL: B1 VL with S94G, N96G, H98Q, P101Y
notes: as for B1
Kd [1]: 36 nM | koff [1]: 0.011 s⁻¹ | kon [1]: 300000 M⁻¹ s⁻¹

B4: H0610-G1dh/none-Hi-Kn010G3/L0000-k0 (antibody, V domains shown)
VH: B1 VH with P53G, G56P
VL: DIVMTQSPLSLPVTPGEPASISCRSSQSLVHSNRNTYLHWYQQKPGQAPRLLIYKVSNRFSGVPDRFSGSGSGTDFTLKISRVEAEDVGVYYCGQGTQVPYTFGQGTKLEIKR
notes: one-arm
Kd [3]: 3.97 nM | Kd [4]: 4.16 nM

B5: GCH054-G1dh/none-Hi-Kn010G3/L0011-k0 (antibody, V domains shown)
VH: B1 VH with K19T, Q43E, P53G, K54E, G56P, Q62E
VL: B4 VL with S28P
notes: one-arm
Kd [3]: 5.25 nM | Kd [4]: 5.25 nM

B6: GCH094-G1dh/none-Hi-Kn010G3/L0011-k0 (antibody, V domains shown)
VH: B1 VH with K19T, I37V, P40A, Q43E, I48M, P53G, K54E, G56P, Q62E
VL: B4 VL with S28P
notes: one-arm
Kd [3]: 3.88 nM | Kd [4]: 4.54 nM

B7: GCH065-G1dh/none-Hi-Kn010G3/L0011-k0 (antibody, V domains shown)
VH: B1 VH with K19T, Q43E, P53G, K54P, G56P, Q62E
VL: B4 VL with S28P
notes: one-arm
Kd [3]: 0.884 nM | Kd [4]: 0.884 nM

B8: TR01H015-E22Hh/L0000-k0/GL4-E22Hk/H0610-E22L (bispecific antibody, human IgG1, kappa, L234A L235A, N297A)
heavy: QVQLVESGGGLVQPGRSLRLSCAASGFTFSNAWMHWVRQAPGKGLEWVAQIKGKSNNYATYYAESVKGRFTISRADSKNSIYLQMNSLKTEDTAVYYCRYVHYSASYGVDIWGQGTTVTVSSASTKGPSVFPLAPSSKSTSGGTAALGCLVKDYFPEPVTVSWNSGALTSGVHTFPAVLQSSGLYSLSSVVTVPSSSLGTQTYICNVNHKPSNTKVDKKVEPKSCDKTHTCPPCPAPEAAGGPSVFLFPPKPKDTLMISRTPEVTCVVVDVSHEDPEVKFNWYVDGVEVHNAKTKPREEQYASTYRVVSVLTVLHQDWLNGKEYKCKVSNKALPAPIEKTISKAKGQPREPQVYTLPPSRCELTKNQVSLSCAVKGFYPSDIAVEWESNGQPENNYKTTPPVLDSDGSFFLVSKLTVDKSRWQQGNVFSCSVMHEALHNHYTQKSLSLSPDYKDDDDK
light: DIVMTQSPLSLPVTPGEPASISCRSSQSLVHSNRNTYLHWYQQKPGQAPRLLIYKVSNRFSGVPDRFSGSGSGTDFTLKISRVEAEDVGVYYCGQGTQVPYTFGQGTKLEIKRTVAAPSVFIFPPSDEQLKSGTASVVCLLNNFYPREAKVQWKVDNALQSGNSQESVTEQDSKDSTYSLSSTLTLSKADYEKHKVYACEVTHQGLSSPVTKSFNRGEC
chain 1: DIVMTQSPLSLPVTPGEPASISCRSSQSLVHSNRNTYLHWYQQKPGQAPRLLIYKVSNRFSGVPDRFSGSGSGTDFTLKISRVEAEDVGVYYCSQNTHVPPTFGQGTKLEIKSSASTKGPSVFPLAPSSKSTSGGTAALGCLVKDYFPEPVTVSWNSGALTSGVHTFPAVLQSSGLYSLSSVVTVPSSSLGTQTYICNVNHKPSNTKVDKKVEPKSCDKTHTCPPCPAPEAAGGPSVFLFPPKPKDTLMISRTPEVTCVVVDVSHEDPEVKFNWYVDGVEVHNAKTKPREEQYASTYRVVSVLTVLHQDWLNGKEYKCKVSNKALPAPIEKTISKAKGQPREPQVCTLPPSRDELTKNQVSLWCLVKGFYPSDIAVEWESNGQPENNYKTTPPVLDSDGSFFLYSKLTVDKSRWQQGNVFSCSVMHEALHNHYTQKSLSLSPHHHHHHHH
chain 2: QVQLVQSGAEVKKPGASVKVSCKASGYTFTDYEMHWIRQPPGQGLEWIGAIDGKTPDTAYSQKFKGRVTLTADKSTSTAYMELSSLTSEDTAVYYCTRFYSYTYWGQGTLVTVSSASVAAPSVFIFPPSDEQLKSGTASVVCLLNNFYPREAKVQWKVDNALQSGNSQESVTEQDSKDSTYSLSSTLTLSKADYEKHKVYACEVTHQGLSSPVTKSFNRGEC
notes: ERY22 format
Kd [3]: 0.263 nM | Kd [5]: 35.7 nM

B9: TR01H002-E22Hh/GLS3108-k0/GL4-E22Hk/H0610-E22L (bispecific antibody, human IgG1, kappa, L234A L235A, N297A)
heavy: QVQLVESGGGVVQPGRSLRLSCAASGFTFSNAWMHWVRQAPGKGLEWVAQIKAKSNNYKKYYAESVKGRFTISRDDSKNSLYLQMNSLKTEDTAVYYCRYVHYYYYYGVQAWGQGTTVTVSSASTKGPSVFPLAPSSKSTSGGTAALGCLVKDYFPEPVTVSWNSGALTSGVHTFPAVLQSSGLYSLSSVVTVPSSSLGTQTYICNVNHKPSNTKVDKKVEPKSCDKTHTCPPCPAPEAAGGPSVFLFPPKPKDTLMISRTPEVTCVVVDVSHEDPEVKFNWYVDGVEVHNAKTKPREEQYASTYRVVSVLTVLHQDWLNGKEYKCKVSNKALPAPIEKTISKAKGQPREPQVYTLPPSRCELTKNQVSLSCAVKGFYPSDIAVEWESNGQPENNYKTTPPVLDSDGSFFLVSKLTVDKSRWQQGNVFSCSVMHEALHNHYTQKSLSLSPDYKDDDDK
light: B8 light with H39S
chain 1: B8 chain 1
chain 2: B8 chain 2
notes: ERY22 format
Kd [3]: 0.475 nM | Kd [5]: 2.04 nM
